Where two headings read alike, the source gives them in different places. Each block holds one binder with its values, some of them ahead of it.
Tests used:
Assay in all cases: BLI
[1] = target: T1, human FcRI protein (MednaBio, E1031) (human, UniProt P12314 16-288, limits assumed)
T1 construct: Bought; loaded on anti-penta-HIS biosensors; also called FcγRI

[2] = target: T2, human FcRIIA protein (MednaBio, E1033) (human, UniProt P12318 34-218, limits assumed)
T2 construct: Bought; also called FcγRIIA
T2 sequence (looked up): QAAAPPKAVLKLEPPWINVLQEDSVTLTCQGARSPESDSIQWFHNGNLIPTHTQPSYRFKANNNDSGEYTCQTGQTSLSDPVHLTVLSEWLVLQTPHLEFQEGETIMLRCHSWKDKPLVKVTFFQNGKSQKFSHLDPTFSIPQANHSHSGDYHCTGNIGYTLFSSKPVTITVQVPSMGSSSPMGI

[3] = target: T3, human FcRIIB/C protein (MednaBio, E1034) (human, UniProt P31994 43-217, limits assumed)
T3 construct: Bought as FcRIIB/C; also called FcγRIIB; CD32B
T3 sequence (looked up): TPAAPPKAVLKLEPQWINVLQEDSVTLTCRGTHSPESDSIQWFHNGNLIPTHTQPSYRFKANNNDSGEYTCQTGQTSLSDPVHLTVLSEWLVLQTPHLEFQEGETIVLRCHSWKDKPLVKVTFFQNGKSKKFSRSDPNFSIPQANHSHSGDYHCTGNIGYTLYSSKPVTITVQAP

[4] = target: T4, human FcRn protein (MednaBio, E1032) (human, UniProt P55899 24-297; P61769 21-119)
T4 construct: Bought; assays at pH 6

[5] = target: T5, human FcRIIIA-F158 protein (MednaBio, E1036) (human, UniProt P08637 17-208)
T5 construct: Bought; also called FcγRIIIA(F)

[6] = target: T6, human FcRIIIB protein (MednaBio, E1037) (human, UniProt O75015 17-200)
T6 construct: Bought; also called FcγRIIIB; FcgRIIIB

[7] = target: T1, human FcRI protein (MednaBio, E1031); remark: listed apart in the source
Method in brief: (§1)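 Binding was measured by biolayer interferometry on an Octet Red96 System, with commercial human Fc receptor proteins loaded at 20 μg/mL onto anti-penta-HIS biosensors. Sensors were dipped into an 8-point 1:3 dilution series of test IgG starting at 300 nM in PBS with 0.1% BSA and 0.02% Tween-20. Fcγ receptor assays ran at pH 7.2 and FcRn assays at pH 6. Kd, kon and koff came from global fitting to a 1:1 binding model.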

[8] = target: T2, human FcRIIA protein (MednaBio, E1033); remark: listed apart in the source
Method in brief: as §1

[9] = target: T3, human FcRIIB/C protein (MednaBio, E1034); remark: listed apart in the source
Method in brief: as §1

[10] = target: T7, human FcRIIIA-V158 protein (MednaBio, E1035) (human, UniProt P08637 17-208)
T7 construct: Bought; also called FcγRIIIA(V); FcgRIIIA(V)
Method in brief: as §1

[11] = target: T4, human FcRn protein (MednaBio, E1032); remark: listed apart in the source
Method in brief: as §1

[12] = target: T5, human FcRIIIA-F158 protein (MednaBio, …); remark: listed apart in the source
Method in brief: as §1

[13] = target: T6, human FcRIIIB protein (MednaBio, E1037); remark: listed apart in the source
Method in brief: as §1

[14] = target: T2, human FcRIIA protein (MednaBio, E1033); remark: listed apart in the source
Method in brief: as §1

[15] = target: T3, human FcRIIB/C protein (MednaBio, E1034); remark: listed apart in the source
Method in brief: as §1

[16] = target: T7, human FcRIIIA-V158 protein (MednaBio, …); remark: listed apart in the source
Method in brief: as §1

T6 sequence (O75015 17-200 limits assumed): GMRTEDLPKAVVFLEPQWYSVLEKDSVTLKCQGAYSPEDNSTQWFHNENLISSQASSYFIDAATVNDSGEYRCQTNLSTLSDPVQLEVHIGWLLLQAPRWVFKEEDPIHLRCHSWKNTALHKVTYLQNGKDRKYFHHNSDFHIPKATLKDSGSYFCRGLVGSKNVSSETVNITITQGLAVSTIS
T5 sequence (P08637 17-208 limits assumed): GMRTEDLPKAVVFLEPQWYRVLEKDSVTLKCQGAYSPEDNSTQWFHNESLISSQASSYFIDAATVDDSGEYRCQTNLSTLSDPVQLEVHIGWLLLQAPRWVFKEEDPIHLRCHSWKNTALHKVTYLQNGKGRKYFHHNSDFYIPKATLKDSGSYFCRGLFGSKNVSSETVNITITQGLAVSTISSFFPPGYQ
T7 sequence (P08637 17-208 F176V): as the sequence (P08637 17-208 limits assumed) above, with F160V counted along it
T1 sequence (P12314 16-288 limits assumed): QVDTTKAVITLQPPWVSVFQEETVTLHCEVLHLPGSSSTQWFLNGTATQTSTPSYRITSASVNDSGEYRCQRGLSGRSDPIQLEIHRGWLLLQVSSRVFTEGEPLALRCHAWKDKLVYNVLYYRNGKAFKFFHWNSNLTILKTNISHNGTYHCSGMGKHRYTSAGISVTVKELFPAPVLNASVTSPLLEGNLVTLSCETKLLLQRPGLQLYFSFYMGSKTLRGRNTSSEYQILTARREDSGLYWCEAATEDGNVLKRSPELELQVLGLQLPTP

Kd [1]: 5.6 nM | koff [1]: 0.0012 s⁻¹ | kon [1]: 220000 M⁻¹ s⁻¹ | Kd [2]: 56 nM | koff [2]: 0.032 s⁻¹ | kon [2]: 570000 M⁻¹ s⁻¹ | Kd [3]: 130 nM | koff [3]: 0.016 s⁻¹ | kon [3]: 120000 M⁻¹ s⁻¹ | Kd [4]: 16 nM | koff [4]: 0.008 s⁻¹ | kon [4]: 480000 M⁻¹ s⁻¹ | Kd [5]: 120 nM | koff [5]: 0.02 s⁻¹ | kon [5]: 170000 M⁻¹ s⁻¹ | Kd [6]: 130 nM | koff [6]: 0.027 s⁻¹ | kon [6]: 210000 M⁻¹ s⁻¹ | Kd [7]: 5.6 nM | koff [7]: 0.0012 s⁻¹ | kon [7]: 220000 M⁻¹ s⁻¹ | Kd [8]: 56 nM | koff [8]: 0.032 s⁻¹ | kon [8]: 570000 M⁻¹ s⁻¹ | Kd [9]: 130 nM | koff [9]: 0.016 s⁻¹ | kon [9]: 120000 M⁻¹ s⁻¹ | Kd [10]: 60 nM | koff [10]: 0.027 s⁻¹ | kon [10]: 450000 M⁻¹ s⁻¹ | Kd [11]: 16 nM | koff [11]: 0.008 s⁻¹ | kon [11]: 480000 M⁻¹ s⁻¹ | Kd [12]: 120 nM | koff [12]: 0.02 s⁻¹ | kon [12]: 170000 M⁻¹ s⁻¹ | Kd [13]: 130 nM | koff [13]: 0.027 s⁻¹ | kon [13]: 210000 M⁻¹ s⁻¹
B1: wild-type human IgG1 control (antibody)
heavy: not shown
light: SYELTQPPSVSVSPGQTASITCSGDNIGDQYAHWYQQKPGQSPVLVIYQDKNRPSGIPERFSGSNSGNTATLTISGTQAMDEADYYCATYTGFGSLAVFGGGTKLTVLGQPKAAPSVTLFPPSSEELQANKATLVCLISDFYPGAVTVAWKADSSPVKAGVETTTPSKQSNNKYAASSYLSLTPEQWKSHRSYSCQVTHEGSTVEKTVAPTECS
notes: Control IgG

Kd [1]: 4.8 nM | koff [1]: 0.0017 s⁻¹ | kon [1]: 360000 M⁻¹ s⁻¹ | Kd [2]: 400 nM | koff [2]: 0.055 s⁻¹ | kon [2]: 140000 M⁻¹ s⁻¹ | Kd [3]: 400 nM | koff [3]: 0.05 s⁻¹ | kon [3]: 140000 M⁻¹ s⁻¹ | Kd [4]: 18 nM | koff [4]: 0.012 s⁻¹ | kon [4]: 640000 M⁻¹ s⁻¹ | Kd [7]: 4.8 nM | koff [7]: 0.0017 s⁻¹ | kon [7]: 360000 M⁻¹ s⁻¹ | Kd [8]: 400 nM | koff [8]: 0.055 s⁻¹ | kon [8]: 140000 M⁻¹ s⁻¹ | Kd [9]: 400 nM | koff [9]: 0.05 s⁻¹ | kon [9]: 140000 M⁻¹ s⁻¹ | Kd [10]: 550 nM | koff [10]: 0.092 s⁻¹ | kon [10]: 170000 M⁻¹ s⁻¹ | Kd [11]: 18 nM | koff [11]: 0.012 s⁻¹ | kon [11]: 640000 M⁻¹ s⁻¹ | Kd [14]: 400 nM | koff [14]: 0.055 s⁻¹ | kon [14]: 140000 M⁻¹ s⁻¹ | Kd [15]: 400 nM | koff [15]: 0.05 s⁻¹ | kon [15]: 140000 M⁻¹ s⁻¹ | Kd [16]: 550 nM | koff [16]: 0.092 s⁻¹ | kon [16]: 170000 M⁻¹ s⁻¹
B2: wild-type human IgG4 control (antibody)
heavy: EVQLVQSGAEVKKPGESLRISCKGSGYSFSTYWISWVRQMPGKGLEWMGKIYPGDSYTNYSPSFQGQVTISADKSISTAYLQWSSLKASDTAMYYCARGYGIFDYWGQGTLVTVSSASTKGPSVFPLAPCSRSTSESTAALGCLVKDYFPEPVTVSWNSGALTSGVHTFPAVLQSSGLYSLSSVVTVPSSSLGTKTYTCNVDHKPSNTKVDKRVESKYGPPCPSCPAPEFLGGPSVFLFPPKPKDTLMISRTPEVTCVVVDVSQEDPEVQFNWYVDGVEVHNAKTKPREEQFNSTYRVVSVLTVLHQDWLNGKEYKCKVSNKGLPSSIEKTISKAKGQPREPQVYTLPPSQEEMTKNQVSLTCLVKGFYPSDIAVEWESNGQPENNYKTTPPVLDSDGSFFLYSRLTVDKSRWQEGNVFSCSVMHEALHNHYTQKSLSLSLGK
light: B1 light
notes: Control IgG

— patent US20200392227A1 (LYVGEN BIOPHARMA, published 2020)
